Test results reported in the Immune Epitope Database (IEDB).

Key:
HLA-A*02:06 [1] = assay: IEDB peptide-MHC binding, purified MHC/competitive/radioactivity; ≥ and ≤ were set here for values at or beyond the usual limits of such assays
HLA-A*02:03 = assay: as above
HLA-A*68:02 [2] = assay: IEDB peptide-MHC binding, cellular MHC/competitive/fluorescence; ≥ and ≤ were set here for values at or beyond the usual limits of such assays
HLA-A*02:02 = assay: as above
HLA-A*02:01 [3] = assay: as above
HLA-A*68:02 [4] = assay: IEDB peptide-MHC binding, purified MHC/competitive/radioactivity; ≥ and ≤ were set here for values at or beyond the usual limits of such assays
HLA-A*02:01 [5] = assay: as above
HLA-A*02:06 [6] = assay: IEDB peptide-MHC binding, cellular MHC/competitive/fluorescence; ≥ and ≤ were set here for values at or beyond the usual limits of such assays
[7] = source organism: Vaccinia virus WR
[8] = source organism: Influenza A virus

Sequence | IC50 (HLA-A*02:06 [1]; [7]) [nM] | IC50 (HLA-A*02:03; [7]) [nM] | IC50 (HLA-A*68:02 [2]; [7]) [µM] | IC50 (HLA-A*02:02; [7]) [µM] | IC50 (HLA-A*02:01 [3]; [7]) [µM] | IC50 (HLA-A*02:01 [5]; [7]) [nM] | also measured
YIWIKNLET | 347 | 1180 | 32 | 12.6 | – | – | –
AAMDDFQLI | – | – | – | – | – | – | IC50 (HLA-A*02:06 [1]; [8]): 99 nM; IC50 (HLA-A*02:03; [8]): 1730 nM; IC50 (HLA-A*68:02 [2]; [8]): 57.9 µM; IC50 (HLA-A*02:02; [8]): 9.59 µM; IC50 (HLA-A*02:01 [3]; [8]): 7.96 µM
HINDQKFDDV | 1190 | 1160 | – | 5.86 | 13.2 | – | IC50 (HLA-A*68:02 [4]; [7]): 1120 nM
VQLSNNKYV | 214 | 541 | ≥ 70 | 7.34 | – | 1820 | –
IVQSVLRDI | 1310 | 101 | 47.8 | ≥ 70 | 47.3 | – | –
HTNHSDISM | 1200 | 4140 | – | 8.81 | 12.1 | – | IC50 (HLA-A*68:02 [4]; [7]): 26 nM
LVQYRILPM | 4670 | 1170 | 59.6 | 14.8 | 34.7 | – | –
YVILKDPRIA | 1900 | 355 | 19 | 6.01 | 39.5 | – | –
ITLVVISVI | 1030 | 1810 | 6.03 | 15.1 | – | 551 | –
SASDMQKFTI | 4250 | 1220 | – | 10.8 | 13.5 | – | IC50 (HLA-A*68:02 [4]; [7]): 487 nM
VIDRLPSET | 3670 | 742 | 8.57 | 7.08 | – | 3500 | –
GVLIAGIIL | 951 | 1040 | 16.9 | 5.24 | – | 545 | –
KTRLFRSPQV | 433 | 984 | 6.21 | 9.27 | 7.06 | – | –
VNPTLLFLKV | – | – | – | – | – | – | IC50 (HLA-A*68:02 [4]; [8]): 24 nM; IC50 (HLA-A*02:03; [8]): 2810 nM; IC50 (HLA-A*02:01 [5]; [8]): 3720 nM; IC50 (HLA-A*02:06 [6]; [8]): 16.4 µM; IC50 (HLA-A*02:02; [8]): 6.37 µM
FIISTLNKIL | 8.1 | 1.8 | 11.7 | 5.08 | – | 170 | –
DINVIGLIV | – | 4040 | – | 9.8 | – | 387 | IC50 (HLA-A*68:02 [4]; [7]): 2270 nM; IC50 (HLA-A*02:06 [6]; [7]): 5.53 µM
SIGFEARIV | 1310 | 575 | 19.2 | 10.1 | 7.3 | – | –
